In patent US20230103618A1 (FRED HUTCHINSON CANCER CENTER, published 2023):
No end group written: not given here.

Biological target: T1, TrkB.T1 peptide FVLFHKIPLDG (not fully specified)
T1 construct: also called target peptide
T1 peptide: FVLFHKIPLDG
Assay: bead-based flow cytometry, peptide on beads
Description: Murine monoclonal antibody (clone FH1D12) was generated at the Fred Hutchinson Antibody Technology Core Facility. Briefly, male and female 20-week-old C57BL6 mice that were characterized as genetic null for TrkB.T1 (Dorsey, S. G. et al.) In vivo restoration of physiological levels of truncated TrkB.T1 receptor rescues neuronal cell death in a trisomic mouse model. Neuron 51, 21-28 (2006)) were immunized with TrkB.T1 peptide Ac—C(dPEG4)[…]-OH (SEQ ID NO:1) maleimide coupled to KLH carrier protein. Following a 12+ week boosting protocol splenocytes were isolated from high titer mice and electrofused to a subclone of the P3x63-Ag8 myeloma cell line (BTX, Harvard Apparatus). Hybridomas secreting peptide specific antibody were identified and isolated using a ClonePix2 (Molecular Devices, CPII) colony picker. Antibodies from the picked clones were validated for peptide binding by flow cytometry using a cytometric bead array carrying the target peptide. Clone FH1D12 was subcloned (CPII) followed by validation for peptide binding by bead-based flow cytometry. Affinity purified IgG2b lambda from the hybridoma was further characterized by Western blot analysis and IHC tissue staining. Antibody development was performed in Holland Lab and with the Antibody Technology Resource (Fred Hutchinson Cancer Research Center).

binding result: binds
B1: Murine monoclonal antibody (clone FH1D12) to TrkB.T1 (antibody, V domains shown)
VH: VQLQQSGPELARPWASVKISCQAFYTFSRGIHFDIRNTMYWIQWVKQRPGQGLEWIGAIYPGNGDPTYSQNFKDKATLTADKSSNTAYMQLSSLTSEDSAVYYCARYDYGGGFTYWGQGTLVTVSA
VL: QTVVTQESALTTSPGETVTLTCRSSTGAVTTSNYANWVQEKPDHLFTGLIGGINNRAPGVPARFSGSLIGDKAVLTITGAQTEDEAIYFCALWYSNHWVFGGGTKLTVL
notes: also called SPEH1_D12; antibody clone D12
